Assay [1] deals with Ly49C natural killer domain (NKD), high-affinity mutant (V141K, S171G, E193G, R223K) (murine). The experiment in a line: ITC. In general terms: In ITC the heat of successive injections is recorded.
Assay [2] deals with H-2K^b (heavy chain with murine β2-microglobulin) (mouse | murine).
Assay [3] has as its target Ly49C natural killer domain (NKD), high-affinity mutant (V141K, S171G, E193G, R223K) (murine). In words: AUC; sedimentation velocity, 20 °C, absorbance optics, 40,000 rpm; 4.2 μM Ly49C NKD, 3.7 μM peptide/MHC complex, and a mixture of the two; 10 mM HEPES pH 7.4, 150 mM NaCl, 3 mM EDTA, 0.005% surfactant P20.

In assay [1], “H-2K^b in complex with the ovalbumin peptide (OVA; SIINFEKL) (from UniProt P01887) (peptide-MHC)” showed a Kd of 1.9 µM, a dH of 2 kcal/mol and a stoichiometry N of 1.

ovalbumin peptide (OVA; SIINFEKL): in assay [2], the apparent Tm of the peptide/H-2K^b complex by differential scanning fluorimetry stood at 58 °C.

As to “H-2K^b presenting the MMTV gp70 peptide (MMTV; ANYDFICV) (from UniProt P01887 21-119) (peptide-MHC)”, in assay [1], the dissociation constant Kd turned out to be 8 µM, the dH was 2.3 kcal/mol and the stoichiometry N was found to be 1.

With MMTV gp70 peptide (MMTV; ANYDFICV), the apparent Tm of the peptide/H-2K^b complex by differential scanning fluorimetry in assay [2] stood at 54 °C.

Turning to “Ly49C natural killer domain (NKD), high-affinity mutant (V141K, S171G, E193G, R223K) (domain or fragment)”, in assay [3], the stoichiometry N came to 2.

A word on the Kd: it is a measure of binding affinity in units of concentration. Low values mean tighter binding, high ones weaker binding. A word on the stoichiometry N: it is the number of molecules, sites or subunits per partner or assembly.

The record behind these values is PMC8138769.
